According to PMC2710984:

Target: GST–BIR3 fusion protein (XIAP BIR3 domain)
Test: FMAT bead-based fluorescence competition assay

Question: How did the IC50 turn out when “Smac N-terminal tripeptide AVP (compound 5)” was run?
Answer: > 10 µM
